Laboratory results: patent publication US20140072613A1, “Compositions and Methods for Treating Cutaneous Scarring” (priority 2012, published 2014)

How the values were obtained:
Experiment in all cases: cell-based or functional assay
PAK4(h) (human) = PAK4(h) (human) (UniProt O96013)
DDR2(h) (human) = target: T1, DDR2(h) (human) (UniProt Q16832)
T1 sequence (looked up): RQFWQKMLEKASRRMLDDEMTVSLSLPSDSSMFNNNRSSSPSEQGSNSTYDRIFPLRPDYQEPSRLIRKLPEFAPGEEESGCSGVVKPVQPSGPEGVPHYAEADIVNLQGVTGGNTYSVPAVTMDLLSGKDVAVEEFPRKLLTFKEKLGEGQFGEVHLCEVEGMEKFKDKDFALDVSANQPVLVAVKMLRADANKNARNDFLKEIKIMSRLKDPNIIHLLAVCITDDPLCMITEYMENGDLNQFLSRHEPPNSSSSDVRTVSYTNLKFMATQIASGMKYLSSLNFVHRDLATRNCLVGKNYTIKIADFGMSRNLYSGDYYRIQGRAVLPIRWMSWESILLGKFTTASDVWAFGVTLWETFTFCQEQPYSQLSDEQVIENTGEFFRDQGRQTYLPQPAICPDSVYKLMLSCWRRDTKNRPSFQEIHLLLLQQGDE

Rse(h) (human) = target: T2, Rse(h) (human) (UniProt Q06418)
T2 sequence (looked up): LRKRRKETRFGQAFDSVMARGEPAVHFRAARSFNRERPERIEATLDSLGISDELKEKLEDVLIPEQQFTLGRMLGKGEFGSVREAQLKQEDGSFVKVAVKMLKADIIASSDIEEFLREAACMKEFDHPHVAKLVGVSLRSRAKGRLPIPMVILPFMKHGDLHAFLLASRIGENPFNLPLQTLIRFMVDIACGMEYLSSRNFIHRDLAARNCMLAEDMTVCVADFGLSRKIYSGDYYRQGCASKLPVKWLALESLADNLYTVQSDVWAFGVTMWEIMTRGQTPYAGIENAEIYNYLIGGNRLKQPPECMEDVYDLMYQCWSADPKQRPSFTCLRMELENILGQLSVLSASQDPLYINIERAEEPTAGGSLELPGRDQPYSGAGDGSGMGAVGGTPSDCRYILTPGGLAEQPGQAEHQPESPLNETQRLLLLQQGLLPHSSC

DMPK(h) (human) = DMPK(h) (human) (UniProt Q09013)
EphA1(h) (human) = target: T3, EphA1(h) (human) (UniProt P21709)
T3 sequence (looked up): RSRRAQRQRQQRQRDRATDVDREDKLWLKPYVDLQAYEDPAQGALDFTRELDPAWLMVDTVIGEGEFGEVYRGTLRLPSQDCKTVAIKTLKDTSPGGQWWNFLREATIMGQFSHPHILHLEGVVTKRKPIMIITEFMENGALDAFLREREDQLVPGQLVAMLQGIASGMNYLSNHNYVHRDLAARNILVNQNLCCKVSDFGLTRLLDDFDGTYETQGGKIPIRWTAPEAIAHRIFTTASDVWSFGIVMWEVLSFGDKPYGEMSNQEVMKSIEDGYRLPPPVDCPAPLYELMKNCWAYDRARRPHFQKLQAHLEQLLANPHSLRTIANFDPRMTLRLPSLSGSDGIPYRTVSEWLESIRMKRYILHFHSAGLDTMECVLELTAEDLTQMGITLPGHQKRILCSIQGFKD

CaMKIδ(h) (human) = CaMKIδ(h) (human) (UniProt Q8IU85)
IR(h), activated (human) = IR(h), activated (human) (UniProt P06213)
KDR(h) (human) = KDR(h) (human) (UniProt P35968)
PAK5(h) (human) = PAK5(h) (human) (UniProt Q9P286)
MRCKα(h) (human) = MRCKα(h) (human) (UniProt Q5VT25)
EGFR(L858R)(h) (human) = EGFR(L858R)(h) (human) (UniProt P00533)
SAPK2b(h) (human) = SAPK2b(h) (human) (UniProt Q15759)
PKCβI(h) (human) = PKCβI(h) (human) (UniProt P05771)
SGK2(h) (human) = target: T4, SGK2(h) (human) (UniProt Q9HBY8)
T4 sequence (looked up): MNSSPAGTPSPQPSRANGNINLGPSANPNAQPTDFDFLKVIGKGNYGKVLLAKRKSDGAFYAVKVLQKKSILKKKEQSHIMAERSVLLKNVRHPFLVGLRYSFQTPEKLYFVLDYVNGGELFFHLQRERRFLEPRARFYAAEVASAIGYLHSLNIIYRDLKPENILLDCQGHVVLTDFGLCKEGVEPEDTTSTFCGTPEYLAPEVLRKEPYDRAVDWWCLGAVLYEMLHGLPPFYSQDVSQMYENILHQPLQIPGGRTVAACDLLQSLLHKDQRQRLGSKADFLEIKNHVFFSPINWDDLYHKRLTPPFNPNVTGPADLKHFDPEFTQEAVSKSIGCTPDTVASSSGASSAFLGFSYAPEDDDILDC

Rsk2(h) (human) = Rsk2(h) (human) (UniProt P51812)
Ron(h) (human) = Ron(h) (human) (UniProt Q04912)
BTK(R28H)(h) (human) = BTK(R28H)(h) (human) (UniProt Q06187)
cKit(h) (human) = cKit(h) (human) (UniProt P10721)
Mer(h) (human) = target: T5, Mer(h) (human) (UniProt Q12866)
T5 sequence (looked up): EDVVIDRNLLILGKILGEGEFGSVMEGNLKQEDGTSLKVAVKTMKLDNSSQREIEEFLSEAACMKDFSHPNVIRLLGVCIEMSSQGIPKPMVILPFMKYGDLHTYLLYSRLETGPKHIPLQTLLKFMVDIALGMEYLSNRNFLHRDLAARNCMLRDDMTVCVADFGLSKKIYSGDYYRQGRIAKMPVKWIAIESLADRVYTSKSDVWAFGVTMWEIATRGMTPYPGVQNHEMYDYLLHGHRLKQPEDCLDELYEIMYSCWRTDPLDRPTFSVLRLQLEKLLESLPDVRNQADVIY

CDK3/cyclinE(h) (human) = CDK3/cyclinE(h) (human) (UniProt Q00526)
MELK(h) (human) = MELK(h) (human) (UniProt Q14680)

Sequence of Ron(h) (human) (Q04912 983-1400 limits assumed): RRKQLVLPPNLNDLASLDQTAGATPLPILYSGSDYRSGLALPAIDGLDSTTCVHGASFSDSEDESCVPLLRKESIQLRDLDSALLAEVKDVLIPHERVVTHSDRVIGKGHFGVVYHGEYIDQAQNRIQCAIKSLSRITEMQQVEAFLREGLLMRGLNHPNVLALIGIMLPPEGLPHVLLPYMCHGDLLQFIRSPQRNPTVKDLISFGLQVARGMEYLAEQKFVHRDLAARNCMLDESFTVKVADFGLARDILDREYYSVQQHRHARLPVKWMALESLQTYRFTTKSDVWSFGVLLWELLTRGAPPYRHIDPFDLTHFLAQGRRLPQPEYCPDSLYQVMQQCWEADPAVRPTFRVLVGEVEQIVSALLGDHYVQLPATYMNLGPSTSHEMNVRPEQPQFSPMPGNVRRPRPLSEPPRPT
Sequence of KDR(h) (human) (P35968 790-1356 limits assumed): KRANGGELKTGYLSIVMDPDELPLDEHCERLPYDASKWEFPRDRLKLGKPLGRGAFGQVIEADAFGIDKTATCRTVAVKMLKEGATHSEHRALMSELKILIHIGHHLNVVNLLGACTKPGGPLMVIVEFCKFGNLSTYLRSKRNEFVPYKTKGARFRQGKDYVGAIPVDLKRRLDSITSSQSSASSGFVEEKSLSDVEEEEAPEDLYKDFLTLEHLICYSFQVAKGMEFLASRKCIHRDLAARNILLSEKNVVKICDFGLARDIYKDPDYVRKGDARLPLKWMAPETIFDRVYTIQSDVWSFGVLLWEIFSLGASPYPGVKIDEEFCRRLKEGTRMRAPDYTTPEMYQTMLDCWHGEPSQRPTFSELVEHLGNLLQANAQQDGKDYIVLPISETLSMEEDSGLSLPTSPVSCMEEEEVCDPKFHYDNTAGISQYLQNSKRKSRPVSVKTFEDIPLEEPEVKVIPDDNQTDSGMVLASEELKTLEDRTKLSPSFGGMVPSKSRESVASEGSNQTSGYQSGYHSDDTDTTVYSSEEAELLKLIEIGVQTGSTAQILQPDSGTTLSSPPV
Sequence of PAK5(h) (human) (Q9P286 whole entry): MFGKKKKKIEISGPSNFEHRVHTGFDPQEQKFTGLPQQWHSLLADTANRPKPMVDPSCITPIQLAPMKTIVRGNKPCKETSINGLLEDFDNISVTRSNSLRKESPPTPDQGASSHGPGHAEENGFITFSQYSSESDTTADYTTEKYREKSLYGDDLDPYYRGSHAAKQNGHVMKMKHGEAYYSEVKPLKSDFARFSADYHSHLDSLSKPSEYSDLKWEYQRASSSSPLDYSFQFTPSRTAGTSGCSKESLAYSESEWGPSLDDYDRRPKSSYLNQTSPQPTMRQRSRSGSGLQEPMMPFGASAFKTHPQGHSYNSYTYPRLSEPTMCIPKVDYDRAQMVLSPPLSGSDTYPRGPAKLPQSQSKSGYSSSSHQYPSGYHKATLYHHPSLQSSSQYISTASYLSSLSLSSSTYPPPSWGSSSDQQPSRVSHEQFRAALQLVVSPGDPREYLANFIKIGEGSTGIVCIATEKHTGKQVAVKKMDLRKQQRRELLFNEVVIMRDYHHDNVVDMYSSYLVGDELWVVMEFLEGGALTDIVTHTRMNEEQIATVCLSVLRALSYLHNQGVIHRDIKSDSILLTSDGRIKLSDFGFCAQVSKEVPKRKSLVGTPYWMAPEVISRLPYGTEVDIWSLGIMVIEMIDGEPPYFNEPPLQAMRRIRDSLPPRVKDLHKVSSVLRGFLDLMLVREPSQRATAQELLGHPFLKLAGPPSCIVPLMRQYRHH
Sequence of cKit(h) (human) (P10721 544-976): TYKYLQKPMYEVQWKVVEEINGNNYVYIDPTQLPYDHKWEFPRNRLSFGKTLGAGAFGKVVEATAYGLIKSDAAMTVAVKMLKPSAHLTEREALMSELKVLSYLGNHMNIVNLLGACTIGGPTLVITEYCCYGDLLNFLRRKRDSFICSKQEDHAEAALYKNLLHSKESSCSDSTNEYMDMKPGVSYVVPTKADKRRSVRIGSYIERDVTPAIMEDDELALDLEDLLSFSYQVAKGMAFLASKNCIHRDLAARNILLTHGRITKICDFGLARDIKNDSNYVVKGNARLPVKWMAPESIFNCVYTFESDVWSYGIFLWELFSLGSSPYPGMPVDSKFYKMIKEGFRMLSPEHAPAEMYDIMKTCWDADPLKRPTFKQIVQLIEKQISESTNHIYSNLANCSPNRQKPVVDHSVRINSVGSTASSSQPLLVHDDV
Sequence of PAK4(h) (human) (O96013 whole entry): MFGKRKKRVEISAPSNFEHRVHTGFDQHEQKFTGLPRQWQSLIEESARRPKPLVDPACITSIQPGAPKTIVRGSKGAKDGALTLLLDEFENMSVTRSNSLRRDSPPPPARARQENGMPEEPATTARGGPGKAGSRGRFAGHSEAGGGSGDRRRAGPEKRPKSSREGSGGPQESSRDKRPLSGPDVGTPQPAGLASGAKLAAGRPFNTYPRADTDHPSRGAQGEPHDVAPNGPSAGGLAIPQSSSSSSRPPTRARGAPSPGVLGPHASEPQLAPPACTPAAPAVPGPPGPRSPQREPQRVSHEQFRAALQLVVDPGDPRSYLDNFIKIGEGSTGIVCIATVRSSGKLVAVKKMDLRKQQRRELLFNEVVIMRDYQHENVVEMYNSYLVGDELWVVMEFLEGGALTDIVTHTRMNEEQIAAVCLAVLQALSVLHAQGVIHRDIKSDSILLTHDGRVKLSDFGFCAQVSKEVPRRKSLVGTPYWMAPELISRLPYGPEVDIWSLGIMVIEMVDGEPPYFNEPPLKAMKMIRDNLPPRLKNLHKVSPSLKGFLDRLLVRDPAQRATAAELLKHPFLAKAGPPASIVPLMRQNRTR
Sequence of MRCKα(h) (human) (Q5VT25 1-473 limits assumed): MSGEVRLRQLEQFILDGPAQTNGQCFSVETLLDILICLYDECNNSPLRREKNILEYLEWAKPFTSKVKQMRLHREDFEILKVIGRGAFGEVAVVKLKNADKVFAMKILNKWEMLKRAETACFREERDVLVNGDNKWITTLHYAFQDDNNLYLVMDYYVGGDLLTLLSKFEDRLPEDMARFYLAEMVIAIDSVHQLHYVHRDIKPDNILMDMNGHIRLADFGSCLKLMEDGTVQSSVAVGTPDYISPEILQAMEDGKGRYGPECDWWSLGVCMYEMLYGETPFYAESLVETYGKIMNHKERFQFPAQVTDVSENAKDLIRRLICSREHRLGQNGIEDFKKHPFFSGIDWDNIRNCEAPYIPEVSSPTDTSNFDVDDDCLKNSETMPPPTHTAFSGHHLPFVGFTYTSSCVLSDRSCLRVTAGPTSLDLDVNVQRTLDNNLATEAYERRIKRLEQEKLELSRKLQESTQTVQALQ
Sequence of PKCβI(h) (human) (P05771 whole entry): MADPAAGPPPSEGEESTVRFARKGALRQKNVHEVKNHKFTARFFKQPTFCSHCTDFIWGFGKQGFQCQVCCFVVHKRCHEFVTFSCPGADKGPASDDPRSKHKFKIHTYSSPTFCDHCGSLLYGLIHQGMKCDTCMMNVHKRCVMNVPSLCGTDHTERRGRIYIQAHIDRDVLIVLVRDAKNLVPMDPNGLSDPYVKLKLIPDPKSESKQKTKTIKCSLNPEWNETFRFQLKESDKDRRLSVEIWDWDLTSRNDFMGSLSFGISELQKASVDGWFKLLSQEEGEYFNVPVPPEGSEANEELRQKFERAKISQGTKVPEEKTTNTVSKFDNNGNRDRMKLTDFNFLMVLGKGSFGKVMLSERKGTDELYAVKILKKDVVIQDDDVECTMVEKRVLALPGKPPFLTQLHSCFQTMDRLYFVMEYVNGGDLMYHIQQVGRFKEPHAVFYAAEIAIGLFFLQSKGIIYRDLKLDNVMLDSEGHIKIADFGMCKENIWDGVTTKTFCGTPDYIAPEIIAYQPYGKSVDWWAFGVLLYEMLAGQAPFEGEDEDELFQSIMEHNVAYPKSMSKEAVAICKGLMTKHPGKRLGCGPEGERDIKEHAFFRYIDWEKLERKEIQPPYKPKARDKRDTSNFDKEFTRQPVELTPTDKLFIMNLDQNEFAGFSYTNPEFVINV
Sequence of Rsk2(h) (human) (P51812 whole entry): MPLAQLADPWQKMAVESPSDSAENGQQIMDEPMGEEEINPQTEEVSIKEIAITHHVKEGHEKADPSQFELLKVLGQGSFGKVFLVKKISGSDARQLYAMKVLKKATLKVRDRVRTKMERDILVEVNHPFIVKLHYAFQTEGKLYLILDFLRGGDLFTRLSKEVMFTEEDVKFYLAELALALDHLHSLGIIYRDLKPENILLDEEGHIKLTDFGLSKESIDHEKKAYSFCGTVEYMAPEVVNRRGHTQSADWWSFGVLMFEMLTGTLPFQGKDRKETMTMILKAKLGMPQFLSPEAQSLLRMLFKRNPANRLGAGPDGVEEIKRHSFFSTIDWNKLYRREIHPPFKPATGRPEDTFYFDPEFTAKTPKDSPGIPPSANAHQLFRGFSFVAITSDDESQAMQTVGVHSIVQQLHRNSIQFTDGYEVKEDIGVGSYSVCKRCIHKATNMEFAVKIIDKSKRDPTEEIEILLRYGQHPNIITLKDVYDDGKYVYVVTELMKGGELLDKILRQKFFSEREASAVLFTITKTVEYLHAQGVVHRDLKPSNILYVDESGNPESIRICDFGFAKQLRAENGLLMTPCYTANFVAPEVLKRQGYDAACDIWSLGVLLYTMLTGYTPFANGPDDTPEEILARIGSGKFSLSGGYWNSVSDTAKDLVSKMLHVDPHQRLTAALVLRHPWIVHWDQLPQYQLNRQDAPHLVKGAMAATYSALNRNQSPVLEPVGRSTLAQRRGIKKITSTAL
Sequence of SAPK2b(h) (human) (Q15759 whole entry): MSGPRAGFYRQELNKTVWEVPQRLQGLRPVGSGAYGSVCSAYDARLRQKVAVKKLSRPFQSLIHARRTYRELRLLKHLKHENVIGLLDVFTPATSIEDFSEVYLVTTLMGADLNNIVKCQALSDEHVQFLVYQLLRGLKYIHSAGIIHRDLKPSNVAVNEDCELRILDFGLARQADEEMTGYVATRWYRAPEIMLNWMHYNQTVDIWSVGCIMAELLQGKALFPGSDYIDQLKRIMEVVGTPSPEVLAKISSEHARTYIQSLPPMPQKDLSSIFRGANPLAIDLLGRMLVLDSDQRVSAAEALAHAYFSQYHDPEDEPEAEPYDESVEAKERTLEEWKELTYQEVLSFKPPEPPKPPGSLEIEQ

% activity, 100 µM (PAK4(h) (human)): 86%
% activity, 100 µM (DDR2(h) (human)): 79%
% activity, 100 µM (Rse(h) (human)): 63%
% activity, 100 µM (DMPK(h) (human)): 12%
% activity, 100 µM (EphA1(h) (human)): 40%
% activity, 100 µM (CaMKIδ(h) (human)): 0%
% activity, 100 µM (IR(h), activated (human)): 90%
% activity, 100 µM (KDR(h) (human)): 15%
% activity, 100 µM (PAK5(h) (human)): 125%
% activity, 100 µM (MRCKα(h) (human)): 5%
% activity, 100 µM (EGFR(L858R)(h) (human)): 26%
% activity, 100 µM (SAPK2b(h) (human)): 42%
% activity, 100 µM (PKCβI(h) (human)): 1%
% activity, 100 µM (SGK2(h) (human)): -1%
% activity, 100 µM (Rsk2(h) (human)): 14%
% activity, 100 µM (Ron(h) (human)): 46%
% activity, 100 µM (BTK(R28H)(h) (human)): 10%
% activity, 100 µM (cKit(h) (human)): 45%
% activity, 100 µM (Mer(h) (human)): 17%
% activity, 100 µM (CDK3/cyclinE(h) (human)): 8%
% activity, 100 µM (MELK(h) (human)): 0%
Substance: MMI-0500 (peptide)
